From the Immune Epitope Database (IEDB)

Key:
HLA-B*15:03 = experiment: IEDB peptide-MHC binding, purified MHC/competitive/radioactivity; filed as Kd, often an IC50 or EC50 that approximates it; ≥ and ≤ were set here for values at or beyond the usual limits of such assays
HLA-A*03:01 [1] = experiment: IEDB peptide-MHC binding, purified MHC/competitive/fluorescence; filed as Kd, often an IC50 or EC50 that approximates it; ≥ and ≤ were set here for values at or beyond the usual limits of such assays
HLA-B*83:01 = experiment: as above; settings: source organism: Salmonella enterica subsp. enterica serovar Typhi
HLA-B*15:42 = experiment: as above; settings: source organism: Salmonella enterica subsp. enterica serovar Typhi
HLA-B*45:06 = experiment: as above; settings: source organism: Salmonella enterica subsp. enterica serovar Typhi
HLA-B*58:01 = experiment: IEDB peptide-MHC binding, purified MHC/direct/fluorescence; filed as Kd, often an IC50 or EC50 that approximates it; ≥ and ≤ were set here for values at or beyond the usual limits of such assays; settings: source organism: Mammarenavirus juninense
HLA-A*31:01 = experiment: as above; settings: source organism: Mammarenavirus juninense
HLA-B*46:01 [2] = experiment: as above; settings: source organism: Mammarenavirus juninense
HLA-A*01:01 = experiment: as above; settings: source organism: Mammarenavirus juninense
HLA-B*40:01 = experiment: as above; settings: source organism: Mammarenavirus juninense
HLA-B*27:05 = experiment: as above; settings: source organism: Mammarenavirus juninense
HLA-B*15:01 [3] = experiment: as above; settings: source organism: Mammarenavirus juninense
HLA-B*18:01 [4] = experiment: as above; settings: source organism: Mammarenavirus juninense
HLA-B*39:01 [5] = experiment: as above; settings: source organism: Mammarenavirus juninense
HLA-A*69:01 [6] = experiment: as above; settings: source organism: Mammarenavirus juninense
HLA-A*29:02 = experiment: as above; settings: source organism: Mammarenavirus juninense
HLA-B*57:01 [7] = experiment: as above; settings: source organism: Mammarenavirus juninense
HLA-B*44:02 = experiment: as above; settings: source organism: Mammarenavirus juninense
HLA-B*07:02 = experiment: as above; settings: source organism: Mammarenavirus juninense
HLA-A*03:01 [8] = experiment: as above
HLA-A*02:01 [9] = experiment: as above; settings: source organism: Mammarenavirus juninense
HLA-A*02:12 = experiment: as above
HLA-A*24:03 = experiment: as above
HLA-A*02:16 = experiment: as above
HLA-A*02:11 = experiment: as above; settings: source organism: Zaire ebolavirus
HLA-A*02:19 = experiment: as above
HLA-A*02:03 = experiment: as above
HLA-A*68:02 = experiment: as above
HLA-B*46:01 [10] = experiment: IEDB peptide-MHC binding, purified MHC/competitive/fluorescence; filed as Kd, often an IC50 or EC50 that approximates it; ≥ and ≤ were set here for values at or beyond the usual limits of such assays
HLA-B*51:01 = experiment: as above
HLA-B*27:03 = experiment: as above
HLA-A*26:01 = experiment: as above
HLA-B*15:17 = experiment: as above
HLA-B*15:01 [11] = experiment: as above; settings: source organism: Zaire ebolavirus
HLA-B*18:01 [12] = experiment: as above
HLA-B*39:01 [13] = experiment: as above
HLA-A*69:01 [14] = experiment: as above
HLA-B*57:01 [15] = experiment: as above
HLA-A*02:01 [16] = experiment: as above
HLA-A*11:01 = experiment: IEDB peptide-MHC binding, purified MHC/direct/fluorescence; filed as Kd, often an IC50 or EC50 that approximates it; ≥ and ≤ were set here for values at or beyond the usual limits of such assays; settings: source organism: Coxiella burnetii
[17] = source organism: Vaccinia virus WR
[18] = source organism: Zaire ebolavirus
[19] = source organism: Coxiella burnetii

Measured: Kd

AKSQSDTVF
0.00016 µM: HLA-B*15:03; [17]

FMLSVHYRK
0.364 µM: HLA-A*03:01 [1]; source organism: Listeria monocytogenes HCC23

FMYFCEQKL
0.0357 µM: HLA-B*15:03; [17]

FSMLGIWFF
0.0283 µM: HLA-B*15:03; source organism: Vaccinia virus Copenhagen

FTFKVNSVK
0.152 µM: HLA-A*03:01 [1]; source organism: Salmonella enterica subsp. enterica serovar Typhi
≥ 5 µM: HLA-B*83:01 | HLA-B*15:42 | HLA-B*45:06

GKLDPTNTL
≥ 20 µM: HLA-B*58:01 | HLA-A*31:01 | HLA-B*46:01 [2] | HLA-A*01:01 | HLA-B*40:01 | HLA-B*27:05 | HLA-B*15:01 [3] | HLA-B*18:01 [4] | HLA-A*69:01 [6] | HLA-A*29:02 | HLA-B*57:01 [7] | HLA-B*44:02 | HLA-B*07:02 | HLA-A*03:01 [8]; source organism: Mammarenavirus juninense | HLA-A*02:01 [9]
3 µM: HLA-B*39:01 [5]

HISWQGPGK
0.218 µM: HLA-A*03:01 [1]; source organism: Vibrio atlanticus LGP32

IEVSSDISF
0.00974 µM: HLA-B*15:03; [17]

IFLKPDETF
≥ 20 µM: HLA-A*02:12; [18] | HLA-A*02:16; [18] | HLA-A*02:11 | HLA-A*02:19; [18] | HLA-A*02:03; [18] | HLA-A*68:02; [18] | HLA-A*03:01 [8]; [18] | HLA-B*46:01 [10]; [18] | HLA-B*51:01; [18] | HLA-B*27:03; [18] | HLA-A*26:01; [18] | HLA-B*15:17; [18] | HLA-B*15:01 [11] | HLA-B*18:01 [12]; [18] | HLA-B*39:01 [13]; [18] | HLA-A*69:01 [14]; [18] | HLA-B*57:01 [15]; [18] | HLA-A*02:01 [16]; [18]
0.0366 µM: HLA-A*24:03; source organism: Sudan ebolavirus - Maleo (1979)

KFFMVHSLK
≥ 20 µM: HLA-A*02:12; [19] | HLA-A*24:03; [19] | HLA-A*02:16; [19] | HLA-A*02:19; [19] | HLA-A*02:03; [19] | HLA-A*68:02; [19] | HLA-B*46:01 [10]; [19] | HLA-B*51:01; [19] | HLA-B*27:03; [19] | HLA-A*26:01; [19] | HLA-B*15:17; [19] | HLA-B*18:01 [12]; [19] | HLA-B*39:01 [13]; [19] | HLA-A*69:01 [14]; [19] | HLA-B*57:01 [15]; [19] | HLA-A*02:01 [16]; [19]
0.603 µM: HLA-A*11:01
